From patent US20040224408A1, “THAP proteins as nuclear receptors for chemokines and roles in transcriptional regulation, cell proliferation and cell differentiation” (published 2004)

Experiments:
human THAP2 = biological target: T1, human THAP2 (human, UniProt Q9H0W7 1-228, limits assumed); test: yeast two-hybrid using Par-4 wild type bait (FIG. 10B)
T1 construct: also called hTHAP2

human THAP3 = biological target: T2, human THAP3 (human, UniProt Q8WTV1 1-239, limits assumed); test: as above
T2 construct: also called hTHAP3
T2 sequence: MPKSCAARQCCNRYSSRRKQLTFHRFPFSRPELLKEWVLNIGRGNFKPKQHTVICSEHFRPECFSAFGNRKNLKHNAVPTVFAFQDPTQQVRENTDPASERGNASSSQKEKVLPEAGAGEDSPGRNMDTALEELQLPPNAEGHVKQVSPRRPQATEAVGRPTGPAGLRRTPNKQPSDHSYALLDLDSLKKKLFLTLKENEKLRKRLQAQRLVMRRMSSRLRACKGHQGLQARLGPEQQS

human THAP1 (THanatos …) [1] = biological target: T3, human THAP1 (THanatos (death)-Associated Protein-1), full length (human, UniProt Q9NVV9 1-213); test: yeast two-hybrid, both orientations (His/Ade selection)
T3 construct: also called hTHAP1; FLJ10477
T3 sequence: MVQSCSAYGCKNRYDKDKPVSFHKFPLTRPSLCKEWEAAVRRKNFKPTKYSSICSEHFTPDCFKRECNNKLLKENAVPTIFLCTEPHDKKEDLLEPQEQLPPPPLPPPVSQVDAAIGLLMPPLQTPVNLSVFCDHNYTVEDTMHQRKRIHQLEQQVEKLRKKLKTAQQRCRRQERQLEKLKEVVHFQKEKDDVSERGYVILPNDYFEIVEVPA
From the text: We then examined whether the leucine zipper/death domain at the C-terminus of Par4, previously shown to be involved in Par4 binding to WT-1 and aPKC, was required for the interaction between THAP1 and Par4. Two Par4 mutants were constructed for that purpose, Par4A and Par4DD. Par4A lacks the leucine zipper/death domain while Par4DD contains this domain. pGBKT7-Par4A(amino acids 1-276) and pGADT7-Par4A. were constructed by sub-cloning a EcoRI-BglII fragment from pGADT7-Par4 into the EcoRI and BamHI sites of pGBKT7 and pGADT7. Par4DD (amino acids 250-342) was amplified by PCR, using pGBKT7-Par4 as template, with primers Par4.4 (5′-[…]-3′) (SEQ ID NO: 193) and Par4.5, and cloned into the EcoRI and BamHI sites of pGBKT7 and pGADT7 to obtain pGBKT7-Par4DD and pGADT7-Par4DD. Two-hybrid interaction between THAP1 and Par4 mutants was tested by cotransformation of AH109 with pGBKT7-THAP1 and pGADT7-Par4A or pGADT7-Par4DD and selection of transformants by His and Ade double auxotrophy according to manufacturer's instructions ([…] two-hybrid system 3, Clontech). […] Similar results were obtained when two-hybrid experiments were performed in the opposite orientation using Par4 or Par4 mutants (Par4A and Par4DD) as baits instead of THAP1 (FIG. 3A).

human THAP1 (THanatos …) [2] = biological target: T3, human THAP1 (THanatos …); test: yeast two-hybrid, BD7-THAP1 with AD7-SLC/CCL21ΔCOOH; identical results in the opposite orientation
From the text: For two-hybrid assays, yeast cells were cotransformed with BD7-THAP1 and AD7-SLC/CCL21 or AD7-SLC/CCL21ΔCOOH expression vectors. AD7-SLC/CCL21 or AD7-SLC/CCL21ΔCOOH expression vectors were generated by subcloning BamHI fragment (encoding SLC amino acids 24-134) or BamHI-PstI fragment (encoding SLC amino acids 24-102) from pGKT7-SLC/CCL21 (see example 15) into pGADT7 expression vector (Clontech). Transformants were selected on media lacking histidine and adenine. […] Identical results were obtained by cotransformation of AD7-THAP1 with BD7-SLC/CCL21 or BD7-SLC/CCL21ΔCOOH.

[3] = biological target: T4, Par4 leucine zipper/death domain (Par4DD, amino acids 250-342) (human, UniProt Q96IZ0 248-340); test: yeast two-hybrid
T4 construct: also called myc-Par4DD; mycPar4DD
T4 chain: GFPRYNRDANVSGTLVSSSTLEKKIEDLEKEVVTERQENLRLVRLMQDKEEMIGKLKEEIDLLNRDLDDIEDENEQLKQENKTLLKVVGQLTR
Description: Two-hybrid interaction between THAP1 mutants and Par4DD was tested by cotransformation of AH109 with pGBKT7-THAP1-C1, -C2, -C3, -N1, -N2 or -N3 and pGADT7-Par4DD and selection of transformants by His and Ade double auxotrophy according to manufacturer's instructions ([…] two-hybrid system 3, Clontech).
for mutant THAP1ΔQRCRR. The resulting PCR fragments were digested with EcoRI and BamHI, and cloned in frame downstream of the Gal4 Binding Domain (Gal4-BD) in pGBKT7 two-hybrid vector (Clontech) to generate pGBKT7-THAP1-RR/AA and −Δ(QRCRR), or downstream of the Enhanced Green Fluorescent Protein (EGFP) ORF in pEGFP.C2 vector (Clontech) to generate pEGFP.C2-THAP1-RR/AA and −Δ(QRCRR). THAP1 RR/AA and THAP1ΔQRCRR THAP1 mutants were then tested in the three THAP1/Par4 interaction assays (two-hybrid assay, in vitro THAP1/Par4 interaction assay, in vivo THAP1/Par4 interaction assay) as described above for the THAP1-C1, -C2, -C3, -N1, -N2 or -N3 mutants.

[4] = biological target: T5, GST-Par4DD fusion protein (pGEX-2T-Par4DD, Par4 amino acids 250-342) (human, UniProt Q96IZ0 248-340); test: in vitro THAP1/Par4 interaction assay (GST pull-down with GST-Par4DD)
T5 construct: Expressed in E. coli DH5alpha and immobilized on glutathione sepharose; not shown: Glutathione S-transferase (GST) encoded by the pGEX-2T prokaryotic expression vector (Amersham Pharmacia Biotech); N-ter
T5 chain: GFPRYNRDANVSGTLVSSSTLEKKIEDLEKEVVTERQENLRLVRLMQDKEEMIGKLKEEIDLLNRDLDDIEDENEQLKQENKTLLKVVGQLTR
Description: THAP1 mutants were also tested in the in vitro THAP1/Par4 interaction assay. In vitro-translated THAP1 mutants were generated with the TNT-coupled reticulocyte lysate system (Promega, Madison, Wis., USA) using pGBKT7-THAP1-C1, -C2, -C3, -N1, -N2 or -N3 vector as template. 25 μl of each ³⁵S-labelled THAP1 mutant was incubated with immobilized GST or GST-Par4 protein overnight at 4° C., in the following binding buffer: 10 mM NaPO4 pH 8.0, 140 mM NaCl, 3 mM MgCl2, 1 mM dithiothreitol (DTT), 0.05% NP40, and 0.2 mM phenylmethyl sulphonyl fluoride (PMSF), 1 mM Na Vanadate, 50 mM β Glycerophosphate, 25 μg/ml chimotrypsine, 5 μg/ml aprotinin, 10 μg/ml Leupeptin. Beads were then washed 5 times in 1 ml binding buffer. Bound proteins were eluted with 2×Laemmli SDS-PAGE sample buffer, fractionated by 10% SDS-PAGE and visualized by fluorography using Amplify (Amersham Pharmacia Biotech). As expected, THAP1-C1, -C2, -C3, -and -N3 interacted with GST/Par4DD (FIG. 4B).
for mutant THAP1ΔQRCRR. The resulting PCR fragments were digested with EcoRI and BamHI, and cloned in frame downstream of the Gal4 Binding Domain (Gal4-BD) in pGBKT7 two-hybrid vector (Clontech) to generate pGBKT7-THAP1-RR/AA and −Δ(QRCRR), or downstream of the Enhanced Green Fluorescent Protein (EGFP) ORF in pEGFP.C2 vector (Clontech) to generate pEGFP.C2-THAP1-RR/AA and −Δ(QRCRR). […]

T1 sequence (Q9H0W7 whole entry): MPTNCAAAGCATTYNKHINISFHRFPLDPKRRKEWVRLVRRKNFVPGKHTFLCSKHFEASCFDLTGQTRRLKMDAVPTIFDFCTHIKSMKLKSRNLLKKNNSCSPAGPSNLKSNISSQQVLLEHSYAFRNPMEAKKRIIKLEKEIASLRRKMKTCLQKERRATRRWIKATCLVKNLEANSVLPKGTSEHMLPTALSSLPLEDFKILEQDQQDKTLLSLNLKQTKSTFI

B1: human prostate apoptosis response-4 protein (PAR4), full length (other)
chain: MATGGYRTSSGLGGSTTDFLEEWKAKREKMRAKQNPPGPAPPGGGSSDAAGKPPAGALGTPAAAAANELNNNLPGGAPAAPAVPGPGGVNCAVGSAMLTRAPPARGPRRSEDEPPAASASAAPPPQRDEEEPDGVPEKGKSSGPSARKGKGQIEKRKLREKRRSTGVVNIPAAECLDEYEDDEAGQKERKREDAITQQNTIQNEAVNLLDPGSSYLLQEPPRTVSGRYKSTTSVSEEDVSSRYSRTDRSGFPRYNRDANVSGTLVSSSTLEKKIEDLEKEVVTERQENLRLVRLMQDKEEMIGKLKEEIDLLNRDLDDIEDENEQLKQENKTLLKVVGQLTR
notes: Tested as a Gal4-BD (pGBKT7-Par4) or Gal4-AD (pGADT7-Par4) fusion in yeast two-hybrid; also called Par4 wild type
Question: Does B1 bind (human THAP2)?
Answer: Result: binds

Question: Does B1 bind (human THAP3)?
Answer: Result: binds

Question: Does B1 bind (human THAP1 (THanatos …) [1])?
Answer: Result: binds

B2: SLC/CCL21ΔCOOH deletion mutant lacking the basic carboxy-terminal extension (ligand)
chain: SDGGAQDCCLKYSQRKIPAKVVRSYRKQEPSLGCSIPAILFLPRKRSQAELCADPKELWVQQLMQHLDKTPSPQKPAQG
notes: Tested as a Gal4-AD or Gal4-BD fusion and as in vitro translated protein; also called SLC/CCL21?COOH
Question: Does B2 bind (human THAP1 (THanatos …) [2])?
Answer: Result: binds

B3: THAP1 RR/AA mutant (R171A, R172A) (other)
chain: MVQSCSAYGCKNRYDKDKPVSFHKFPLTRPSLCKEWEAAVRRKNFKPTKYSSICSEHFTPDCFKRECNNKLLKENAVPTIFLCTEPHDKKEDLLEPQEQLPPPPLPPPVSQVDAAIGLLMPPLQTPVNLSVFCDHNYTVEDTMHQRKRIHQLEQQVEKLRKKLKTAQQRCAAQERQLEKLKEVVHFQKEKDDVSERGYVILPNDYFEIVEVPA
notes: Tested as a Gal4-BD fusion (pGBKT7), as in vitro translated protein and as an EGFP fusion; also called THAP RR/AA
Question: Does B3 bind [3]?
Answer: Result: no binding

Question: Does B3 bind [4]?
Answer: Result: no binding
